Square brackets hold non-standard residues; d marks the D form. Ends that are not written are not given here. * marks the point of attachment. Bn2 = Nα,Nα-dibenzyl on N-terminal residue; 1Nal = N[C@@H](Cc1cccc2ccccc12)C(=O)O; hArg = N=C(N)NCCCC[C@H](N)C(=O)O; Tic = O=C(O)[C@@H]1Cc2ccccc2CN1; Cha = N[C@@H](CC1CCCCC1)C(=O)O; Cit = NC(=O)NCCC[C@H](N)C(=O)O; Phg = N[C@H](C(=O)O)c1ccccc1; Bn = c1ccc(C*)cc1; Acm = CC(=O)NC*
These binders were tested against T1, CGRP1 receptor (CRLR/RAMP1 complex) of human neuroblastoma SK-N-MC cells (human, UniProt Q16602 23-461; O60894 27-148) (assay: cell-based or functional assay).
T1 sequence (Q16602 23-461, chain 1 of 2): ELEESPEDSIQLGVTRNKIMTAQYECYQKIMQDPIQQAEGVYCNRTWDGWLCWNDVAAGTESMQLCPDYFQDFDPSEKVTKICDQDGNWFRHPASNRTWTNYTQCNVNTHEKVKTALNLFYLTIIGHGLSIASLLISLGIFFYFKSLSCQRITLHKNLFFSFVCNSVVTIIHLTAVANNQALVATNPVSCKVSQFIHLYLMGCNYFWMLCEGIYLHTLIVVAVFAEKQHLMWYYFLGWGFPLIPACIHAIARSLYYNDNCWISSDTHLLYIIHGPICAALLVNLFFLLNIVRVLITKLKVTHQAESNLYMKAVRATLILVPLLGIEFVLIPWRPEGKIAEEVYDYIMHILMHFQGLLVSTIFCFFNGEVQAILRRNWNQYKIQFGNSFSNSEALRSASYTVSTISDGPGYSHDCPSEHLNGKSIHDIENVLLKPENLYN
T1 sequence (O60894 27-148, chain 2 of 2): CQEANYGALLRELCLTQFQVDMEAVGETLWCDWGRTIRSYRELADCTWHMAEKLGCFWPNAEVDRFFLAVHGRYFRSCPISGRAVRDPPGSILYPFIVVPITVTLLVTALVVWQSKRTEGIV

Row | Binder | IC50
1 | WVTHXLAGLLSXSGGVVXKNFVPTDVGPFAF (Ac-WVTH[Cit]LAGLLS[Cit]SGGVV[hArg]KNFVPTDVGPFAF-NH2) [SEQ ID NO 653] | 3.22 nM
2 | WVTHXLAGLLSXSGGVVXKNFVPTDVGPXAF (Ac-WVTH[Cit]LAGLLS[Cit]SGGVV[hArg]KNFVPTDVGP[1-Nal]AF-NH2) [SEQ ID NO 144] | 2.24 nM
3 | WVTHXLAGLLSXSGGVVRKNFVPTDVGPXAF (Ac-WVTH[Cit]LAGLLS[Cit]SGGVVRKNFVPTDVGP[Tic]AF-NH2) [SEQ ID NO 146] | 10.1 nM
4 | Ac-KWVTH[Cit]LAGLLS[Cit]SGGVVRKNFVPTDVGPKAF-NH2 (SMILES CC(=O)N[C@@H](CCCCN)C(=O)N[C@@H](Cc1c[nH]c2ccccc12)C(=O)N[C@H](C(=O)N[C@H](C(=O)N[C@@H](Cc1c[nH]cn1)C(=O)N[C@@H](CCCNC(N)=O)C(=O)N[C@@H](CC(C)C)C(=O)N[C@@H](C)C(=O)NCC(=O)N[C@@H](CC(C)C)C(=O)N[C@@H](CC(C)C)C(=O)N[C@@H](CO)C(=O)N[C@@H](CCCNC(N)=O)C(=O)N[C@@H](CO)C(=O)NCC(=O)NCC(=O)N[C@H](C(=O)N[C@H](C(=O)N[C@@H](CCCNC(=N)N)C(=O)N[C@@H](CCCCN)C(=O)N[C@@H](CC(N)=O)C(=O)N[C@@H](Cc1ccccc1)C(=O)N[C@H](C(=O)N1CCC[C@H]1C(=O)N[C@H](C(=O)N[C@@H](CC(=O)O)C(=O)N[C@H](C(=O)NCC(=O)N1CCC[C@H]1C(=O)N[C@@H](CCCCN)C(=O)N[C@@H](C)C(=O)N[C@@H](Cc1ccccc1)C(N)=O)C(C)C)[C@@H](C)O)C(C)C)C(C)C)C(C)C)[C@@H](C)O)C(C)C) [SEQ ID NO 128] | 13 nM
5 | Ac-WVTH[Cit]LAGLLS[Cit]SGGVV[hArg]KNFVPTDVGPF-NH2 (SMILES CC(=O)N[C@@H](Cc1c[nH]c2ccccc12)C(=O)N[C@H](C(=O)N[C@H](C(=O)N[C@@H](Cc1c[nH]cn1)C(=O)N[C@@H](CCCNC(N)=O)C(=O)N[C@@H](CC(C)C)C(=O)N[C@@H](C)C(=O)NCC(=O)N[C@@H](CC(C)C)C(=O)N[C@@H](CC(C)C)C(=O)N[C@@H](CO)C(=O)N[C@@H](CCCNC(N)=O)C(=O)N[C@@H](CO)C(=O)NCC(=O)NCC(=O)N[C@H](C(=O)N[C@H](C(=O)N[C@@H](CCCCNC(=N)N)C(=O)N[C@@H](CCCCN)C(=O)N[C@@H](CC(N)=O)C(=O)N[C@@H](Cc1ccccc1)C(=O)N[C@H](C(=O)N1CCC[C@H]1C(=O)N[C@H](C(=O)N[C@@H](CC(=O)O)C(=O)N[C@H](C(=O)NCC(=O)N1CCC[C@H]1C(=O)N[C@@H](Cc1ccccc1)C(N)=O)C(C)C)[C@@H](C)O)C(C)C)C(C)C)C(C)C)[C@@H](C)O)C(C)C) [SEQ ID NO 655] | > 1000 nM
6 | Ac-WVTH[Cit]LAGLLS[Cit]SGGVVRKNFVPTDVG[Tic]FAF-NH2 [SEQ ID NO 140] | 3.02 nM

Next, values leading:

Row | IC50 | Binder
7 | 2.66 nM | WVTHXLAGLLSXSGGVVXKNXVPTDVGXFAF (Ac-WVTH[Cit]LAGLLS[Cit]SGGVV[hArg]KN[2-Nal]VPTDVG[Oic]FAF-NH2) [SEQ ID NO 137]
8 | 3.45 nM | WVTHXLAGLLSXSGGVVXKNXVPTDVGXFAX (Ac-WVTH[Cit]LAGLLS[Cit]SGGVV[hArg]KN[2-Nal]VPTDVG[Oic]FA[2-Nal]-NH2) [SEQ ID NO 138]
9 | 3.57 nM | WVTHXLAGLLSXSGGVVXKNXVXTDVGXFAX (Ac-WVTH[Cit]LAGLLS[Cit]SGGVV[hArg]KN[2-Nal]V[Oic]TDVG[Oic]FA[2-Nal]-NH2) [SEQ ID NO 139]
10 | 4.32 nM | Ac-WVTH[Cit]LAGLLS[Cit]SGGVVRKNFVPTDVG[Tic]FAF-NH2 [SEQ ID NO 141]
11 | > 1000 nM | Ac-WVTH[Cit]LAGLLS[Cit]SGGVV[hArg]KNFVPTDVGPFA-NH2 (not fully specified) [SEQ ID NO 654]

What follows are binders tested against T1, CGRP1 receptor (CRLR/RAMP1 complex) of … (assay: 125I-hαCGRP competition, SK-N-MC membranes).
Experimental: CGRP₁ binding experiments. […] The plates were incubated at room temperature for 2 hour with shaking at 60 rpm, then the contents of each well were filtered over 0.5% polyethyleneimine (PEI)-treated (at least one hour) GF/C 96-well filter plates. The GF/C filter plates were washed 6 times with ice-cold 50 mM Tris, pH 7.5 and dried in an oven at 55 C for 1 hour. The bottoms of the GF/C plates were then sealed, and 40 μl Microscint™ 20 was added to each well, then the tops of the GF/C plates were sealed with TopSeal™-A, a press-on adhesive sealing film, and the GF/C plates were counted with TopCount NXT (Packard). The data were analyzed by using ActivityBase (IDBS) or Prizm (GraphPad) software.

Row | Binder | Ki
12 | WVTHXLAGLLSXSGGVVXKNFVPTDVGPFAF (Ac-WVTH[Cit]LAGLLS[Cit]SGGVV[hArg]K(20 KPEGald)NFVPTDVGPFAF-NH2) [SEQ ID NO 171] | 1.27 nM
13 | WVTHXLAGLLSXSGGVVRKNFVPTDVGPFAF (Ac-WVTH[Cit]LAGLLS[Cit]SGGVVRK(20 KPEGald)NFVPTDVGPFAF-NH2) [SEQ ID NO 158] | 2.61 nM
14 | ASDTATSVTHRLAGLLSRSGGVVKNNFVPTNVGSKAF-NH2 [SEQ ID NO 709] | 12.1 nM
15 | AC(Acm)DTATSVTHRLAGLLSRSGGVVKNNFVPTNVGSKAF-NH2 (N-terminus assumed; SMILES CC(=O)NCSC[C@H](NC(=O)[C@H](C)N)C(=O)N[C@@H](CC(=O)O)C(=O)N[C@H](C(=O)N[C@@H](C)C(=O)N[C@H](C(=O)N[C@@H](CO)C(=O)N[C@H](C(=O)N[C@H](C(=O)N[C@@H](Cc1c[nH]cn1)C(=O)N[C@@H](CCCNC(=N)N)C(=O)N[C@@H](CC(C)C)C(=O)N[C@@H](C)C(=O)NCC(=O)N[C@@H](CC(C)C)C(=O)N[C@@H](CC(C)C)C(=O)N[C@@H](CO)C(=O)N[C@@H](CCCNC(=N)N)C(=O)N[C@@H](CO)C(=O)NCC(=O)NCC(=O)N[C@H](C(=O)N[C@H](C(=O)N[C@@H](CCCCN)C(=O)N[C@@H](CC(N)=O)C(=O)N[C@@H](CC(N)=O)C(=O)N[C@@H](Cc1ccccc1)C(=O)N[C@H](C(=O)N1CCC[C@H]1C(=O)N[C@H](C(=O)N[C@@H](CC(N)=O)C(=O)N[C@H](C(=O)NCC(=O)N[C@@H](CO)C(=O)N[C@@H](CCCCN)C(=O)N[C@@H](C)C(=O)N[C@@H](Cc1ccccc1)C(N)=O)C(C)C)[C@@H](C)O)C(C)C)C(C)C)C(C)C)[C@@H](C)O)C(C)C)[C@@H](C)O)[C@@H](C)O) [SEQ ID NO 708] | 24 nM
16 | [Phg]VTHRLAGLLSRSGGVVKNNFVPTDVGPFAF-NH2 (N-terminus assumed; SMILES CC(C)C[C@H](NC(=O)CNC(=O)[C@H](C)NC(=O)[C@H](CC(C)C)NC(=O)[C@H](CCCNC(=N)N)NC(=O)[C@H](Cc1c[nH]cn1)NC(=O)[C@@H](NC(=O)[C@@H](NC(=O)[C@@H](N)c1ccccc1)C(C)C)[C@@H](C)O)C(=O)N[C@@H](CC(C)C)C(=O)N[C@@H](CO)C(=O)N[C@@H](CCCNC(=N)N)C(=O)N[C@@H](CO)C(=O)NCC(=O)NCC(=O)N[C@H](C(=O)N[C@H](C(=O)N[C@@H](CCCCN)C(=O)N[C@@H](CC(N)=O)C(=O)N[C@@H](CC(N)=O)C(=O)N[C@@H](Cc1ccccc1)C(=O)N[C@H](C(=O)N1CCC[C@H]1C(=O)N[C@H](C(=O)N[C@@H](CC(=O)O)C(=O)N[C@H](C(=O)NCC(=O)N1CCC[C@H]1C(=O)N[C@@H](Cc1ccccc1)C(=O)N[C@@H](C)C(=O)N[C@@H](Cc1ccccc1)C(N)=O)C(C)C)[C@@H](C)O)C(C)C)C(C)C)C(C)C) [SEQ ID NO 703] | 0.19 nM
17 | CGGGGGGGFVPTDVGPFAF-NH2 [SEQ ID NO 721] | 7.34 nM
18 | [1Nal]VTHRLAGLLSRSGGVVKNNFVPTDVGPFAF-NH2 (N-terminus assumed; SMILES CC(C)C[C@H](NC(=O)CNC(=O)[C@H](C)NC(=O)[C@H](CC(C)C)NC(=O)[C@H](CCCNC(=N)N)NC(=O)[C@H](Cc1c[nH]cn1)NC(=O)[C@@H](NC(=O)[C@@H](NC(=O)[C@@H](N)Cc1cccc2ccccc12)C(C)C)[C@@H](C)O)C(=O)N[C@@H](CC(C)C)C(=O)N[C@@H](CO)C(=O)N[C@@H](CCCNC(=N)N)C(=O)N[C@@H](CO)C(=O)NCC(=O)NCC(=O)N[C@H](C(=O)N[C@H](C(=O)N[C@@H](CCCCN)C(=O)N[C@@H](CC(N)=O)C(=O)N[C@@H](CC(N)=O)C(=O)N[C@@H](Cc1ccccc1)C(=O)N[C@H](C(=O)N1CCC[C@H]1C(=O)N[C@H](C(=O)N[C@@H](CC(=O)O)C(=O)N[C@H](C(=O)NCC(=O)N1CCC[C@H]1C(=O)N[C@@H](Cc1ccccc1)C(=O)N[C@@H](C)C(=O)N[C@@H](Cc1ccccc1)C(N)=O)C(C)C)[C@@H](C)O)C(C)C)C(C)C)C(C)C) [SEQ ID NO 701] | 0.14 nM
19 | Bn2-VTHRLAGLLSRSGGVVKNNFVPTDVGPFAF-NH2 [SEQ ID NO 702] | 0.23 nM

More lines, now with the values ahead:

Row | Ki | Binder
20 | 1.78 nM | WVTHXLAGLLSXSGGVVXKNFVPTDVGPFAF (Ac-WVTH[Cit]LAGLLS[Cit]SGGVV[hArg]K(20 K PEGald)NFVPTDVGPFAF-NH2) [SEQ ID NO 153]
21 | 20.8 nM | ASDTATCVTHRLAGLLSRSGGVVKNNFVPTNVGSKAF (ASDTATC(Acm)VTHRLAGLLSRSGGVVKNNFVPTNVGSKAF-NH2) [SEQ ID NO 707]
22 | 0.2 nM | [Cha]VTHRLAGLLSRSGGVVKNNFVPTDVGPFAF-NH2 [SEQ ID NO 704]
23 | 0.22 nM | Bn-VTHRLAGLLSRSGGVVKNNFVPTDVGPFAF-NH2 (SMILES CC(C)C[C@H](NC(=O)CNC(=O)[C@H](C)NC(=O)[C@H](CC(C)C)NC(=O)[C@H](CCCNC(=N)N)NC(=O)[C@H](Cc1c[nH]cn1)NC(=O)[C@@H](NC(=O)[C@@H](NCc1ccccc1)C(C)C)[C@@H](C)O)C(=O)N[C@@H](CC(C)C)C(=O)N[C@@H](CO)C(=O)N[C@@H](CCCNC(=N)N)C(=O)N[C@@H](CO)C(=O)NCC(=O)NCC(=O)N[C@H](C(=O)N[C@H](C(=O)N[C@@H](CCCCN)C(=O)N[C@@H](CC(N)=O)C(=O)N[C@@H](CC(N)=O)C(=O)N[C@@H](Cc1ccccc1)C(=O)N[C@H](C(=O)N1CCC[C@H]1C(=O)N[C@H](C(=O)N[C@@H](CC(=O)O)C(=O)N[C@H](C(=O)NCC(=O)N1CCC[C@H]1C(=O)N[C@@H](Cc1ccccc1)C(=O)N[C@@H](C)C(=O)N[C@@H](Cc1ccccc1)C(N)=O)C(C)C)[C@@H](C)O)C(C)C)C(C)C)C(C)C) [SEQ ID NO 700]
